The supplement of paper PMC9170038

Tested on: MS2 coat protein
Experiment: apparent KD of MS2 coat protein; higher = weaker reporter binding
Details: Eterna round: R107
Summary of the method: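 Apparent KD per design is the median of normalised cluster binding-curve fits. Designed RNA switches transcribed on-chip from Illumina sequencing clusters were titrated with SNAP-549-labelled MS2 coat protein in twofold steps from 0.7 or 1.5 nM to 3 µM, with 0.8–1.5 h down to 10–20 min per step. Buffer: 100 mM Tris-HCl pH 7.5, 80 mM KCl, 4 mM MgCl2, without or with constant ligand.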

[1] = input ligand: theophylline 20 uM
[2] = input ligand: tryptophan 2.4 mM
[3] = input ligand: theophylline 2 mM

| Sequence | apparent KD of MS2 coat protein (input ligand: arginine 13.2 mM) [µM] | apparent KD of MS2 coat protein [1] [µM] | apparent KD of MS2 coat protein [2] [µM] | apparent KD of MS2 coat protein (input ligand: none) [µM] | apparent KD of MS2 coat protein [3] [µM] |
| --- | --- | --- | --- | --- | --- |
| UCUCGGUCUUUCUUUCUCCGAGAAUAUGAUACCAGUUAGUUUUAUGGCCCUUGGCAGCAUAGAACAUGAGGAUCACCCAUGUGUU [SSThA NP+V+V2 #9 +-Same Structure] | 0.0481 | 0.114 | 0.0965 | – | – |
| UCUGGGUCCGCAAGGACCUGGAGUUGCGAUACCAGCACGGUAACGUGCCCUUGGCAGCGCACAUGAGGAUCACCCAUGUGGUGUU [#1 Exclusion - Theophylline A Attempt #17 (HarryS)] | 0.0866 | 0.365 | 0.204 | – | – |
| UCUUGAGUUUCGGAUACCAGUGAUGUCGAUACAUGAGGAUCACCCAUGUUAGAGGAUGUACACCCUUGGCAGCCGGGUGUGGCGG [wswmullin] | 0.0251 | 0.0421 | 0.0449 | 0.036 | 0.0275 |
| UGACAUUGCUCAGAUACCAGACAUGAGCAUCAGCCAUGUACCAAGAGUACAUAUUAAAAUGUCCCUUGGCAGCUGAGCAAUGUCU [Mod of Eli's TheoBX5 #AlternateMS2 v1] | 0.0152 | 0.0187 | 0.0118 | 0.011 | 0.166 |
| UGACAUUGCUCAGAUACCAGACAUGAGGAUCACCCAUGUGCCAAAACGUACUAAAUAAAUGUCCCUUGGCAGCUGAGCAAUGUCU [TheoBX 13 #MS2Left #Theo2] | 0.0135 | 0.0144 | 0.0129 | – | – |
| UGAGGGACCAGAAGGAGCGACAUGAGGAUCACCCAUGUCUCCCGUUAUGGGAGUUCUUUAGGUCAGGUAGGUCGCUGGUCCCUCA [#1 Exclusion - Arginine B Attempt #7 (Inspired by Omei)] | 0.0256 | 0.256 | – | 0.0779 | – |
| UGAUGGUGCUGAAGGAGCGUGUAAGAACAAGAACAUGAGGAUCACCCAUGUAUUAAUUUAACGCAGGUAGGUCGCGGUGUUAUUG [11.M] | 0.0224 | 0.0307 | 0.0186 | 0.0202 | 0.0224 |
| UGAUUGAACGGAAGGAGCGUGAAGAGAGAGAAACAUGAGGAUCACCCAUGUAGAGAGAGAACACAGGUAGGUCGCCGAGAGAUUG [11.B] | 0.0145 | 0.0212 | 0.0112 | 0.0134 | 0.0147 |
| UGCAUGAGGAUCGCCCGUGUCGAGCCGGUGCGAGGACCGGUACGGCCGCCACUCGAGACAUGAGGAUCACCCAUGUUGUGCGUGA [Exclusion Tryptophan A GF24] | 0.0279 | 0.0795 | – | – | 0.0564 |
| UGCGGACAUGAGGAUCACCCAUGUGCGGAUACCAGCAGCCGGCUCUGCCCUUGGCAGCCGCUACCCUUGCACGUUUAACGAUCCA [theeternabot_sameState_MS2_Theo_A_27] | 0.0319 | 0.0602 | 0.0501 | – | – |
| UGCUGACAAGGACAUGGAUGAUCAGCUGAUACCAGCCUGGAAACAGGCCCUUGGCAGCAGCACAUGAGGAUCACCCAUGUAAUAA [(T)'-(M)'-(T1)-(T2)-(M1)-(M2)_Design3(Mismatches)] | 0.0284 | 0.0781 | 0.0272 | – | – |
| UGGAGUAGGACGGCCGCCACUAUACAAUGUGUAUACAUGAGGAUCACCCAUGUAAUCCUCGGAGAUAGGACCGGGUCAAGUUGUG [X-tryptB-ms2@35] | 0.0394 | 0.0854 | – | – | 0.0598 |
| UGGCAAGAGGGAAGGAGCGUCAGCAGAGUCACAUGAGGAUCACCCAUGUAGCACGUGGUGUGACAGGUAGGUCGCCCUCUGCCGU [SS-ArgB12] | 0.0243 | 0.0307 | 0.0221 | 0.0151 | 0.0218 |
| UGGCAAGAGGGAAGGAGCGUCAGCUGAGUCACAUGAGGAUCACCCAUGUAGCACAUGGUGUGACAGGUAGGUCGCCCUCUGCCGU [SS-ArgB11] | 0.0344 | 0.0366 | 0.0237 | 0.0215 | 0.0288 |
| UGGUACAUGAGGAUCACCCAUGUUCCAGAUACCAGCGUCCCGGUGCGCCCUUGGCAGCUGGUGGUACAUGAGGAUCACCCAUGUG [Exclusion Theophylline A GF14] | 0.0352 | 0.05 | 0.0449 | 0.0402 | 0.0612 |
| UGGUACAUGGCGGCCGCCACUUCACGUAAAAUAAAAACGUGAGGAUCACCCACGUAAUAAGUUGGGAGGACCGGGUCAUGUACCU | 0.122 | 0.344 | 0.123 | 0.321 | 0.491 |
| UGGUACUAGGCGGCCGCCACUGGGUGAUACAUGAGGAUCACCCAUGUUUAAUGCCGAGAGGCAACUAGGACCGGGCCUAGUACAU | 0.101 | 0.339 | – | – | 0.586 |
| UGUAACAUGAGGAUCACCCAUGUAAGUGAUACCAGAUAAGUAGUAGUCCCUUGGCAGCAUAUUGGGCGAGUGUAUAGUCUAUACG [Same State - Theophylline A (Freestyle 7)] | 0.0399 | 0.0698 | 0.0497 | – | – |
| UGUACCAUGUCGGCCGCCACUCAUGAUAAGCAUGAGGAUCACCCAUGUAGCGUCAAAGACGCUAUGAGGACCGGGACAUGGUACU [TryBS Zipper 2] | 0.0343 | 0.0471 | 0.0132 | 0.0347 | 0.0412 |
